According to patent US20070032417A1, “Peptides and therapeutic uses thereof” (priority 2002, published 2007):
Bridges are numbered along the chain shown (N, C = ends).

Molecular target: GST tagged Bcl w delta C29 protein (UniProt Q92843)
Assay: AlphaScreen competition, GST detection; competitor biotinylated Bim BH3-26 peptide

## Ac-IWIAQELRRIGDEFNA-NH2 (linker 6-13 via ‑NHCH2C(═O)(CH2)2NH2‑)
  IC50: 0.3 nM
